Test results as given in PMC2746283, “BtubA-BtubB Heterodimer Is an Essential Intermediate in Protofilament Assembly” (PLoS ONE, 2009).

T1: BtubB-N100E (Prosthecobacter (species  for …, UniProt Q8GCC1 1-426, N100E))
T1 sequence: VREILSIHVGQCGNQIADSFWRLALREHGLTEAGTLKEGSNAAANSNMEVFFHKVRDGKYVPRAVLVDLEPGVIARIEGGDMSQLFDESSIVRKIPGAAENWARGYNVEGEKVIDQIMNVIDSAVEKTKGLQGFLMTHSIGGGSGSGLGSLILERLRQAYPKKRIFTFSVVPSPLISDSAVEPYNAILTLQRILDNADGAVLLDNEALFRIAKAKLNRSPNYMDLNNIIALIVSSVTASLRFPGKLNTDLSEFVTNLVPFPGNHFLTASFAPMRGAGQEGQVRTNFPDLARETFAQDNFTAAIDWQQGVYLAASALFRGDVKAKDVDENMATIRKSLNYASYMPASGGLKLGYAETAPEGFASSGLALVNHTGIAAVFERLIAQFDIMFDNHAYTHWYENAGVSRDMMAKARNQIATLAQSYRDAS

B1: BtubA-V179K (natural protein, P. dejongeii)
chain: MKVNNTIVVSIGQAGNQIAASFWKTVCLEHGIDPLTGQTAPGVAPRGNWSSFFSKLGESSSGSYVPRAIMVDLEPSVIDNVKATSGSLFNPANLISRTEGAGGNFAVGYLGAGREVLPEVMSRLDYEIDKCDNVGGIIVLHAIGGGTGSGFGALLIESLKEKYGEIPVLSCAVLPSPQKSSVVTEPYNTVFALNTLRRSADACLIFDNEALFDLAHRKWNIESPTVDDLNLLITEALAGITASMRFSGFLTVEITLRELLTNLVPQPSLHFLMCAFAPLTPPDRSKFEELGIEEMIKSLFDNGSVFAACSPMEGRFLSTAVLYRGIMEDKPLADAALAAMREKLPLTYWIPTAFKIGYVEQPGISHRKSMVLLANNTEIARVLDRICHNFDKLWQRKAFANWYLNEGMSEEQINVLRASAQELVQSYQVAEESGAKAKVQDSAGDTGMRAAAAGVSDDARGSMSLRDLVDRRR
B2: BtubA, wild type (natural protein, P. dejongeii)
chain: MKVNNTIVVSIGQAGNQIAASFWKTVCLEHGIDPLTGQTAPGVAPRGNWSSFFSKLGESSSGSYVPRAIMVDLEPSVIDNVKATSGSLFNPANLISRTEGAGGNFAVGYLGAGREVLPEVMSRLDYEIDKCDNVGGIIVLHAIGGGTGSGFGALLIESLKEKYGEIPVLSCAVLPSPQVSSVVTEPYNTVFALNTLRRSADACLIFDNEALFDLAHRKWNIESPTVDDLNLLITEALAGITASMRFSGFLTVEITLRELLTNLVPQPSLHFLMCAFAPLTPPDRSKFEELGIEEMIKSLFDNGSVFAACSPMEGRFLSTAVLYRGIMEDKPLADAALAAMREKLPLTYWIPTAFKIGYVEQPGISHRKSMVLLANNTEIARVLDRICHNFDKLWQRKAFANWYLNEGMSEEQINVLRASAQELVQSYQVAEESGAKAKVQDSAGDTGMRAAAAGVSDDARGSMSLRDLVDRRR
B3: BtubB, wild type (natural protein)
chain: VREILSIHVGQCGNQIADSFWRLALREHGLTEAGTLKEGSNAAANSNMEVFFHKVRDGKYVPRAVLVDLEPGVIARIEGGDMSQLFDESSIVRKIPGAANNWARGYNVEGEKVIDQIMNVIDSAVEKTKGLQGFLMTHSIGGGSGSGLGSLILERLRQAYPKKRIFTFSVVPSPLISDSAVEPYNAILTLQRILDNADGAVLLDNEALFRIAKAKLNRSPNYMDLNNIIALIVSSVTASLRFPGKLNTDLSEFVTNLVPFPGNHFLTASFAPMRGAGQEGQVRTNFPDLARETFAQDNFTAAIDWQQGVYLAASALFRGDVKAKDVDENMATIRKSLNYASYMPASGGLKLGYAETAPEGFASSGLALVNHTGIAAVFERLIAQFDIMFDNHAYTHWYENAGVSRDMMAKARNQIATLAQSYRDAS
notes: BtubB, bacterial tubulin-like protein of Prosthecobacter; the species is printed only for BtubA (P. dejongeii); also called B-wt; BtubB WT; source: E. coli, purified as described previously [3], with an added Sephacryl HR-100 column step; not shown: His tag, N-terminal, kept
B4: BtubB-D249K (natural protein)
chain: VREILSIHVGQCGNQIADSFWRLALREHGLTEAGTLKEGSNAAANSNMEVFFHKVRDGKYVPRAVLVDLEPGVIARIEGGDMSQLFDESSIVRKIPGAANNWARGYNVEGEKVIDQIMNVIDSAVEKTKGLQGFLMTHSIGGGSGSGLGSLILERLRQAYPKKRIFTFSVVPSPLISDSAVEPYNAILTLQRILDNADGAVLLDNEALFRIAKAKLNRSPNYMDLNNIIALIVSSVTASLRFPGKLNTKLSEFVTNLVPFPGNHFLTASFAPMRGAGQEGQVRTNFPDLARETFAQDNFTAAIDWQQGVYLAASALFRGDVKAKDVDENMATIRKSLNYASYMPASGGLKLGYAETAPEGFASSGLALVNHTGIAAVFERLIAQFDIMFDNHAYTHWYENAGVSRDMMAKARNQIATLAQSYRDAS
notes: BtubB of Prosthecobacter (species printed only for BtubA: P. dejongeii) with the point mutation D249K; The running text twice calls it BtubA-D249K; also called between-dimer mutant on the bottom of BtubB; source: E. coli, purified as described previously [3], with an added Sephacryl HR-100 column step; not shown: His tag, N-terminal, kept

How the values were obtained:
BtubB-D249K = molecular target: B4; assay: cell-based or functional assay
BtubB, wild type = molecular target: B3; assay: cell-based or functional assay
BtubB-N100E = molecular target: T1, BtubB-N100E; assay: cell-based or functional assay
BtubA, wild type = molecular target: B2; assay: AUC; sedimentation equilibrium of BtubA + BtubB mixtures, 20°C, 10,000-14,000 rpm, HMK buffer (50 mM Hepes, 5 mM MgAc, 350 mM KAc, 1 mM EGTA, pH 7.7), no GTP; molar ratios 1:4 to 4:1, each protein 8 to 32 µM; global fit to a monomer-dimer model (HeteroAnalysis); conditions: both partners purified
BtubA-V179K = molecular target: B1; assay: as above; conditions: both partners purified

| Binder | GTPase activity of the 1:1 mixture, per BtubB (GTP regeneration, coupled NADH assay, ∼29°C) (BtubB-D249K) [GTP min^−1 Btub^−1] | GTPase activity of the 1:1 mixture, per BtubB (GTP regeneration, coupled NADH assay, ∼29°C) (BtubB, wild type) [GTP min^−1 Btub^−1] | further results |
| --- | --- | --- | --- |
| B1 | 0.079 | 0.072 | – |
| BtubA-E258K (natural protein, P. dejongeii) MKVNNTIVVSIGQAGNQIAASFWKTVCLEHGIDPLTGQTAPGVAPRGNWSSFFSKLGESSSGSYVPRAIMVDLEPSVIDNVKATSGSLFNPANLISRTEGAGGNFAVGYLGAGREVLPEVMSRLDYEIDKCDNVGGIIVLHAIGGGTGSGFGALLIESLKEKYGEIPVLSCAVLPSPQVSSVVTEPYNTVFALNTLRRSADACLIFDNEALFDLAHRKWNIESPTVDDLNLLITEALAGITASMRFSGFLTVEITLRKLLTNLVPQPSLHFLMCAFAPLTPPDRSKFEELGIEEMIKSLFDNGSVFAACSPMEGRFLSTAVLYRGIMEDKPLADAALAAMREKLPLTYWIPTAFKIGYVEQPGISHRKSMVLLANNTEIARVLDRICHNFDKLWQRKAFANWYLNEGMSEEQINVLRASAQELVQSYQVAEESGAKAKVQDSAGDTGMRAAAAGVSDDARGSMSLRDLVDRRR | – | 0.088 | GTPase activity of the 1:1 mixture, per BtubB (GTP regeneration, coupled NADH assay, ∼29°C) (BtubB-N100E): 0.098 GTP min^−1 Btub^−1 |
| B2 | 0.077 | – | – |
| B3 | – | – | Kd (BtubA, wild type): 7.3 µM |
| B4 | – | – | Kd (BtubA-V179K): 3.2 µM |
